The values that follow come from IntAct's records for PubMed 14638859.

The chains are these.
B1: ADP-ribosylation factor-binding protein GGA1 (Homo sapiens), Q9UJY5 (parent)
chain: MEPAMEPETLEARINRATNPLNKELDWASINGFCEQLNEDFEGPPLATRLLAHKIQSPQEWEAIQALTVLETCMKSCGKRFHDEVGKFRFLNELIKVVSPKYLGSRTSEKVKNKILELLYSWTVGLPEEVKIAEAYQMLKKQGIVKSDPKLPDDTTFPLPPPRPKNVIFEDEEKSKMLARLLKSSHPEDLRAANKLIKEMVQEDQKRMEKISKRVNAIEEVNNNVKLLTEMVMSHSQGGAAAGSSEDLMKELYQRCERMRPTLFRLASDTEDNDEALAEILQANDNLTQVINLYKQLVRGEEVNGDATAGSIPGSTSALLDLSGLDLPPAGTTYPAMPTRPGEQASPEQPSASVSLLDDELMSLGLSDPTPPSGPSLDGTGWNSFQSSDATEPPAPALAQAPSMESRPPAQTSLPASSGLDDLDLLGKTLLQQSLPPESQQVRWEKQQPTPRLTLRDLQNKSSSCSSPSSSATSLLHTVSPEPPRPPQQPVPTELSLASITVPLESIKPSNILPVTVYDQHGFRILFHFARDPLPGRSDVLVVVVSMLSTAPQPIRNIVFQSAVPKVMKVKLQPPSGTELPAFNPIVHPSAITQVLLLANPQKEKVRLRYKLTFTMGDQTYNEMGDVDQFPPPETWGSL
partner: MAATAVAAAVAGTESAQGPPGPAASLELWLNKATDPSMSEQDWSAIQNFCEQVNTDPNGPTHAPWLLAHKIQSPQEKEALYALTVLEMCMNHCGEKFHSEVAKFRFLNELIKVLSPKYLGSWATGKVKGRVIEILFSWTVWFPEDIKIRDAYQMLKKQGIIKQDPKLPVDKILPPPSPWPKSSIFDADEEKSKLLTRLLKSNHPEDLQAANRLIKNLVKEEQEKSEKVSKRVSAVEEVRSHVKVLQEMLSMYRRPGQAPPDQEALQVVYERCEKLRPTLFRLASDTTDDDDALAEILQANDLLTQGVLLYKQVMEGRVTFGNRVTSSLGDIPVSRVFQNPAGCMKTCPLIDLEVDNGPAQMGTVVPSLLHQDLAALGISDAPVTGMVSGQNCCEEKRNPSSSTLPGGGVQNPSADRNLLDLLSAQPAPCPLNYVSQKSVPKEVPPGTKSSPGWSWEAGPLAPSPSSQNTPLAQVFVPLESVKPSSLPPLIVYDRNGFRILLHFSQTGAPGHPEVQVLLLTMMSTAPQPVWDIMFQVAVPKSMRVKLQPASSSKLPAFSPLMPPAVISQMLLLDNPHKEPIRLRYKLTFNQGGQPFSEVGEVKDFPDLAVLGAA

This assay covers variants of B1. Particulars: with gga2_human GGA2, Q9UJY4.
For the variant D358A, the “effect of a mutation on the interaction” value is “with no effect”.
